# Measured values from article PMC4011729, “Inhibiting Heat Shock Factor 1 in Human Cancer Cells with a Potent RNA Aptamer”.
# B1: iaRNAHSF1 (structured_RNA)
# RNA: GUCGAGUGACGUUGGCAUCGCGAUACAAAAUUAAGUUGAACGCGAGUUCUUCGGAAUUCAACUGCCUUCGUCAUACUCCUUGAAUUCAACUGCCUUCGGGCAUCGCGAUACAAAAUUAAGUUGAACGCGAGUUCUUGGAGGCUCGACGUCUAGCGAUGUGGUUUCGCUACUGAUGAGUCCGUGAGGACGAAAC
# Experiments:
# HSF1 = HSF1 (Homo sapiens, UniProt Q00613 1-529); test: EMSA; apparent Kd, n = 5; 1 nM RNA; EMSA: 1X binding buffer (composition not given), 1 µg yeast RNA, 4 µg BSA, 5 mM DTT, 10% glycerol, 6 U SUPERase-In in 10 µl; room temperature 30 min then 4 C 10 min; 6-9% native gel, 1/4 TBE, 1 mM MgCl2, 4 C; pH not stated; conditions: protein: recombinant; tags: His; label: internal 32P-UTP; two aptamer units, 5' and 3' ends protected
# Chain of HSF1 (Q00613 whole entry): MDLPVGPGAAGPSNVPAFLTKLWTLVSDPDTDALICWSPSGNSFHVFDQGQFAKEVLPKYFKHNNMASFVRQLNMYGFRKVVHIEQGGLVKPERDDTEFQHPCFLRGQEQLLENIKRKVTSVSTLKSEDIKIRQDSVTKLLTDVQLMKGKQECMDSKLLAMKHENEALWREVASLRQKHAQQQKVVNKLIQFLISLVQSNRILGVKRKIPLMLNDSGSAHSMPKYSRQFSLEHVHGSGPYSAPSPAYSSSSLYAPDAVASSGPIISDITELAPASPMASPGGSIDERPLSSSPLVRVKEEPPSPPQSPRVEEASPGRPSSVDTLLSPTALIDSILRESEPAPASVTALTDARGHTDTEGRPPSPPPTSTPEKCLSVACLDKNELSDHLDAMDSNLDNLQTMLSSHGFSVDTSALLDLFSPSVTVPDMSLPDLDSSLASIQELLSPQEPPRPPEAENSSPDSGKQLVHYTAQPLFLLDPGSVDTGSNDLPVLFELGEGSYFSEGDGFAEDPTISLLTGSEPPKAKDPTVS
# HSF2 = HSF2 (Homo sapiens, UniProt Q03933 1-536); test: EMSA; apparent affinity from % shifted complex; 1 nM RNA; EMSA: 1X binding buffer (composition not given), 1 µg yeast RNA, 4 µg BSA, 5 mM DTT, 10% glycerol, 6 U SUPERase-In in 10 µl; room temperature 30 min then 4 C 10 min; 6-9% native gel, 1/4 TBE, 1 mM MgCl2, 4 C; pH not stated; conditions: protein: recombinant; tags: His; label: internal 32P-UTP; two aptamer units, 5' and 3' ends protected
# Chain of HSF2 (Q03933 whole entry): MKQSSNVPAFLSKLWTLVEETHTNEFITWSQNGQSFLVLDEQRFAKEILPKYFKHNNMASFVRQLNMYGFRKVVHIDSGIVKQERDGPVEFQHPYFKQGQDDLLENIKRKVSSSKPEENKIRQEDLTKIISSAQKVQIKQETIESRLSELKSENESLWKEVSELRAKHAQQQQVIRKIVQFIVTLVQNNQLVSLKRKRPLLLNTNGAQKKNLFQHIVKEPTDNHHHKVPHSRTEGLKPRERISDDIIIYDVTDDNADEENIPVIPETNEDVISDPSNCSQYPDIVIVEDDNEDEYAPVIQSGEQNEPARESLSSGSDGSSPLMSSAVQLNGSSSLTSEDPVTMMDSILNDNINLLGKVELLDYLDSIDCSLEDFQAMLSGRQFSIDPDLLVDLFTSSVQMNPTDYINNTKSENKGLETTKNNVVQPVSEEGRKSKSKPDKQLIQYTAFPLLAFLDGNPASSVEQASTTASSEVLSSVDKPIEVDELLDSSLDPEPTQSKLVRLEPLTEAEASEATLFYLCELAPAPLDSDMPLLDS
binder,measurement,setting,value
B1,Kd,HSF1,~25 nM
same,Kd,HSF2,~141 nM
